Results taken from paper PMC8237704.

Biological target: GluN1 NMDA receptor subunit, isoform GluN1-2a, with a fluorescent protein on the C-terminus (GluN1-GFP; GluN1-mCherry)
Assay: FRET or BRET

GluN1 NMDA receptor subunit, isoform GluN1-2a, with a fluorescent protein on the C-terminus (GluN1-GFP; GluN1-mCherry)
FRET efficiency: 5.8%
